In FireProtDB (doi:10.1021/bi020461s):

B1: Glutamate dehydrogenase, P96110 (parent)
chain: MPEKSLYEMAVEQFNRAASLMDLESDLAEVLRRPKRVLIVEFPVRMDDGHVEVFTGYRVQHNVARGPAKGGIRYHPDVTLDEVKALAFWMTWKTAVMNLPFGGGKGGVRVDPKKLSRNELERLSRRFFSEIQVIIGPYNDIPAPDVNTNADVMAWYMDTYSMNVGHTVLGIVTGKPVELGGSKGREEATGRGVKVCAGLAMDVLGIDPKKATVAVQGFGNVGQFAALLISQELGSKVVAVSDSRGGIYNPEGFDVEELIRYKKEHGTVVTYPKGERITNEELLELDVDILVPAALEGAIHAGNAERIKAKAVVEGANGPTTPEADEILSRRGILVVPDILANAGGVTVSYFEWVQDLQSFFWDLDQVRNALEKMMKGAFNDVMKVKEKYNVDMRTAAYILAIDRVAYATKKRGIYP

Variants of: B1
Settings: Thermotoga maritima (strain ATCC 43589 / DSM 3109 / JCM 10099 / NBRC 100826 / MSB8), pH 7, CD, sodium phosphate 20 mM, reversible: yes, structure 1B26, whole UniProt chain shown

Variant | ddG of mutation (higher = less stable) (20 °C, GdnHCl) | denaturant m value (20 °C, GdnHCl) | denaturant midpoint (higher = more stable) (20 °C, GdnHCl) | unfolding free energy (20 °C, GdnHCl) | ddG of mutation (higher = less stable) (20 °C, Urea) | denaturant m value (20 °C, Urea) | denaturant midpoint (higher = more stable) (20 °C, Urea) | unfolding free energy (20 °C, Urea) | ddG of mutation (higher = less stable) (69.5 °C, Thermal) | Tm (Thermal) | change of melting temperature, mutant - wild type (higher = more stable) (Thermal) | unfolding enthalpy (van 't Hoff) (Thermal)
MPEKSLYEMAVEQFNRAASLMDLESDLAEVLRRPKRVLIVEFPVRMDDGHVEVFTGYRVQHNVARGPAKGGIRYHPDVTLDEVKALAFWMTWKTAVMNLPFGGGKGGVRVDPKKLSRNELERLSRRFFSEIQVIIGPYNDIPAPDVNTNADVMAWYMDTYSMNVGHTVLGIVTGKPVELGGSKGREEATGRGVKVCAGLAMDVLGIDPKKATVAVQGFGNVGQFAALLISQALGSKVVAVSDSRGGIYNPEGFDVEELIRYKKEHGTVVTYPKGERITNEELLELDVDILVPAALEGAIHAGNAERIKAKAVVEGANGPTTPEADEILSRRGILVVPDILANAGGVTVSYFEWVQDLQSFFWDLDQVRNALEKMMKGAFNDVMKVKEKYNVDMRTAAYILAIDRVAYATKKRGIYP [E232A] | 0.95 kcal/mol | 3 kcal/mol/M | 1.41 M | 4.17 kcal/mol | 0.35 kcal/mol | 1.6 kcal/mol/M | 3.08 M | 4.5 kcal/mol | 0.17 kcal/mol | 68.4 °C | -1.1 °C | 41 kcal/mol
MPEKSLYEMAVEQFNRAASLMDLESDLAEVLRRPKRVLIVEFPVRMDDGHVEVFTGYRVQHNVARGPAKGGIRYHPDVTLDEVKALAFWMTWKTAVMNLPFGGGKGGVRVDPKKLSRNELERLSRRFFSEIQVIIGPYNDIPAPDVNTNADVMAWYMDTYSMNVGHTVLGIVTGKPVELGGSKGREEATGAGVAVCAGLAMDVLGIDPKKATVAVQGFGNVGQFAALLISQALGSKVVAVSDSRGGIYNPEGFDVEELIRYKKEHGTVVTYPKGERITNEELLELDVDILVPAALEGAIHAGNAERIKAKAVVEGANGPTTPEADEILSRRGILVVPDILANAGGVTVSYFEWVQDLQSFFWDLDQVRNALEKMMKGAFNDVMKVKEKYNVDMRTAAYILAIDRVAYATKKRGIYP [R191A E232A K194A] | -0.03 kcal/mol | 2.72 kcal/mol/M | 1.74 M | 5.15 kcal/mol | -0.04 kcal/mol | 1.42 kcal/mol/M | 3.35 M | 4.89 kcal/mol | -0.2 kcal/mol | 70.8 °C | 1.3 °C | 50.6 kcal/mol
MPEKSLYEMAVEQFNRAASLMDLESDLAEVLRRPKRVLIVEFPVRMDDGHVEVFTGYRVQHNVARGPAKGGIRYHPDVTLDEVKALAFWMTWKTAVMNLPFGGGKGGVRVDPKKLSRNELERLSRRFFSEIQVIIGPYNDIPAPDVNTNADVMAWYMDTYSMNVGHTVLGIVTGKPVELGGSKGREEATGAGVKVCAGLAMDVLGIDPKKATVAVQGFGNVGQFAALLISQALGSKVVAVSDSRGGIYNPEGFDVEELIRYKKEHGTVVTYPKGERITNEELLELDVDILVPAALEGAIHAGNAERIKAKAVVEGANGPTTPEADEILSRRGILVVPDILANAGGVTVSYFEWVQDLQSFFWDLDQVRNALEKMMKGAFNDVMKVKEKYNVDMRTAAYILAIDRVAYATKKRGIYP [R191A E232A] | 0.86 kcal/mol | 3.08 kcal/mol/M | 1.44 M | 4.26 kcal/mol | 0.53 kcal/mol | 1.53 kcal/mol/M | 2.96 M | 4.32 kcal/mol | 0.15 kcal/mol | 68.5 °C | -1 °C | 44.6 kcal/mol
MPEKSLYEMAVEQFNRAASLMDLESDLAEVLRRPKRVLIVEFPVRMDDGHVEVFTGYRVQHNVARGPAKGGIRYHPDVTLDEVKALAFWMTWKTAVMNLPFGGGKGGVRVDPKKLSRNELERLSRRFFSEIQVIIGPYNDIPAPDVNTNADVMAWYMDTYSMNVGHTVLGIVTGKPVELGGSKGREEATGRGVAVCAGLAMDVLGIDPKKATVAVQGFGNVGQFAALLISQELGSKVVAVSDSRGGIYNPEGFDVEELIRYKKEHGTVVTYPKGERITNEELLELDVDILVPAALEGAIHAGNAERIKAKAVVEGANGPTTPEADEILSRRGILVVPDILANAGGVTVSYFEWVQDLQSFFWDLDQVRNALEKMMKGAFNDVMKVKEKYNVDMRTAAYILAIDRVAYATKKRGIYP [K194A] | -0.98 kcal/mol | 2.74 kcal/mol/M | 2.06 M | 6.1 kcal/mol | – | – | – | – | -0.23 kcal/mol | 71 °C | 1.5 °C | 53.8 kcal/mol
